Patent US9127291B2, “Methods and products for biasing cellular development” (University of Central Florida Research Foundation, Inc., priority 2004, dated 2015)
“Also recorded” adds a separate entry of the source.

Tested on: HNSCs
Test: Co-culture of Lhx8-transfected HNSCs with RA-treated LA-N-2 cells, immunocytochemistry
Type: cell-based, human
Experimental: HNSCs culture: Human NSCs were originally purchased from BioWhittaker, Walkersville, Md. These cells have been expanded and passaged in a serum-free culture medium containing bFGF and EGF in our laboratory for over three years (Brannen & Sugaya, 2000). The HNSCs were cultured at a density of 50 spheres in 75 cm^2 culture flasks (Corning, Cambridge, Mass.) in 20 ml of a serum-free supplemented growth medium consisting of HAMS-F12 (Gibco, BRL, Burlington, ON), antibiotic-antimycotic mixture (1:100, Gibco), B27 (1:50, Gibco), human recombinant FGF-2 and EGF (20 ng/ml each, R&D Systems, Minneapolis, Minn.) and heparin (5 μg/ml, Sigma, St. Louis, Mo.) incubated at 37° C. in a 5% CO^2 humidified incubation chamber (Fisher, Pittsburgh, Pa.). To facilitate optimal growth conditions, HNSCs were sectioned into quarters every 2 weeks and fed by replacing 50% of the medium every 4-5 days.
HNSCs were placed in 6-well poly-lysine coated plates and transfected with 4 μg pcDNA 3.1/Lhx8 plasmid using the Neuroporter transfection system (Gene Therapy Systems, see description in Example 1). Upon the insertion of the Lhx8 gene expressible sequence into the directional cloning vector, the expressible sequence was operatively linked to the CMV promoter, and was also positioned upstream (with regard to reading) of a polyadenylation transcription termination site. Lhx8 expression was confirmed after 48 hrs by RT-PCR using primers designed from the gene cDNA sequence; 5′[…]′ 3 (SEQ ID NO: 12, upper primer) and 5′[…]′3 (SEQ ID NO: 13, lower primer). To initiate differentiation, HNSCs were placed in serum-free basal medium, and allowed to differentiate for 10-15 days in culture.
HNSCs (˜5×10^4) transfected with pcDNA 3.1/Lhx8 and non-transfected HNSCs (controls) were transferred into cell culture inserts with an appropriate pore size and suspended in basal media (in the absence of FGF-2 and EGF and without the addition of other extrinsic differentiation factors) over differentiated LA-N-2 cells plated in 6-well plates. […]

B1: Lhx8: mouse cDNA clone for Lhx8 (SEQ ID NO: 7) inserted into pcDNA 3.1/Zeo mammalian expression vector (nucleic acid, listed as Mus musculus)
DNA: GAATTCGGCACGAGCTTCAGGAAAAGACTTTTCCCCCCACTCCCCCTCCTCTCTGCGAGGTTCCACCCTCTGGAAAACACAACTTTCCCTCTTTTTCTGGAGGGACAGGCCTTAGTGTGGCTGAGAGAGGAAGAACAGTGGGTCAGAGAGTGGTTACGTCACTGTGGCCTTTTTGGAACAAGACACACTGGTGGCATCGCTGTCCTGCCTGTTAGCTTTCCTTGGCCTTTGGGGGCGGAGGAGGGGACACTGCGGACACCCACAGCCTCTGACCCTGCTGGAGCTGGTATGTGACGAGCAGCCCTCGGGCCATGTATTGGAAGAGCGATCAGATGTTTGTGTGTAAGCTGGAGGGAAAGGAGATGCCGGAGCTGGCGGTTCCCCGCGAGATGTGCCCCGGGCTCATGTCGGAGGAGTGCGGGCGGCCTGCAGCTGGCGCCGGGAGGACCCGCAAAGGCTCTGGGGAAGAAGGACTGGTGAATCCCGAGGGAGCCGGGGACGAGGACTCCTGCTCCTCCTCGGGCCCGCTTTCCCCGTCGTCCTCGCCCCAGTCCATGGCCTCGGGTCCGATGTGCCCGCCAGGCAAGTGTGTGTGCAGCAGCTGCGGCCTGGAGATTGTGGACAAATACCTCCTCAAGGTGAATGACTTATGCTGGCATGTCCGCTGTCTCTCCTGCAGTGTCTGCAGAACGTCCCTGGGAAGGCACACGAGCTGCTACATTAAGGATAAAGATATTTTCTGTAAACTCGATTACTTCAGACGGTATGGGACCCGCTGTTCCCGCTGTGGCAGGCACATCCACTCGACTGACTGGGTCCGCAGGGCAAAGGGCAACGTGTATCACCTGGCCTGCTTTGCCTGCTTTTCTTGCAAGAGGCAGCTGTCCACGGGAGAGGAGTTCGCCTTGGTGGAGGAGAAGGTCCTCTGTAGAGTGCACTTTGACTGCATGCTGGACAATCTGAAGAGAGAAGTGGAGAACGGTAATGGGATTAGTGTGGAAGGAGCCCTTCTCACAGAGCAAGACGTCAATCATCCAAAGCCAGCCAAAAGAGCTCGGACCAGCTTCACAGCCGATCAGCTCCAGGTTATGCAAGCACAGTTCGCTCAGGACAACAACCCAGATGCACAGACCCTCCAGAAACTGGCAGAAAGGACAGGCTTAAGCAGACGTGTCATACAGGTGTGGTTTCAGAACTGCAGGGCCCGCCATAAGAAACACGTCAGCCCAAACCATTCTTCCTCGGCCCCCGTCACAGCTGTCCCCTCCTCCAGGCTGTCCCCACCCATCTTGGAAGAAATGGCTTATTCTGCCTACGACCCCCAGGATGACGGGATGCTGACTGCGCACTCATACTTGGATGCTCACCAACAACTCCTGGACTCCAGCCCTTGTTACCCCATCCAATGACCCAGCTGCCAATAAGTCATACCTAATTCCTTCTTTCAGGGATAGAAATGATTGAGGTTATAAACTTGTCATTTTATTATGTATAAAAATA
- differentiated cell type (βIII-tubulin, ChAT staining) (co-culture with LA-N-2 cholinergic cells, serum-free, 10-20 days): differentiated into mainly βIII-tubulin and ChAT-positive cells; also recorded: differentiated mostly neurons with long extended processes
- percentage of transfected cells with characteristics of cholinergic neurons (one trial, end of trial): over 40%
- number of cells differentiating to cells having characteristics of cholinergic cells, versus non-transfected HNSCs (transfected HNSCs cultured without differentiated LA-N-2 cells): no significant difference
